The values below are quoted from earlier work in publication PMC12053642, “Oral PRI-002 treatment in patients with MCI or mild AD: a randomized, double-blind phase 1b trial” (Nature Communications, 2025).

The data set has as its system early AD patients. On the set-up: ADAS-cog: dose or concentration left out as unconfirmed. The settings on record: cited from earlier work; for deceleration of progression measured by CDR-SB versus placebo: over 18 months, on average. From the text: After two decades of setbacks, the United States Food and Drug Administration (USFDA) full approvals for lecanemab[1] and donanemab[2] presents the beginning of a new decade for AD patients with several more drug candidates holding promise for marketing authorisation in the foreseeable future.

For the molecule “donanemab: anti-amyloid therapeutic antibody [reference compound]”, the “deceleration of progression measured by CDR-SB versus placebo” value was “up to 36%”. Besides, the “ADAS-Cog13 and CDR-SB” value (700 mg for the first 3 doses and 1400 mg thereafter i.v. every 4 weeks, after 12 weeks of treatment) was “significant improvement”.

B1: lecanemab: anti-amyloid therapeutic antibody, claimed to preferentially target soluble Aβ protofibrils (antibody, chains of the INN, looked up, V domains shown)
VH: EVQLVESGGGLVQPGGSLRLSCSASGFTFSSFGMHWVRQAPGKGLEWVAYISSGSSTIYYGDTVKGRFTISRDNAKNSLFLQMSSLRAEDTAVYYCAREGGYYYGRSYYTMDYWGQGTTVTVSS
VL: DVVMTQSPLSLPVTPGAPASISCRSSQSIVHSNGNTYLEWYLQKPGQSPKLLIYKVSNRFSGVPDRFSGSGSGTDFTLRISRVEAEDVGIYYCFQGSHVPPTFGPGTKLEIK
For B1, the “deceleration of progression measured by CDR-SB versus placebo” value is listed as “up to 36%”. Moreover, the “slowed decline on measures of cognition and function than placebo” value (early AD, at 18 months (CDR-SB, ADAS-cog14, ADCOMS, ADCS-MCI-ADL)) is on record as 27%. Moreover, the ADAS-cog result (from week 12, most prominent at 6 months) is listed as “symptomatic improvement”.
